{"source": "the DeepSol protein solubility set", "data": [{"test": "soluble on expression in E. coli; label from the status in PepcDB or PDB records", "values": [{"sequence": "MDDRRPQLTEEQLLFRIALTHVKGVGSVLARQLLSAMGSPEAIFSDRKELVQRLPKAPRRLLDAIFSPSVMEEARRKLDQALKAGLNMYFITDDNYPYRLKECVDAPILLYSKGNVDLSPRRVLSIVGTRNITAYGRTATERIVSGLAETIPDLLIVSGLAYGVDVAAHKAALDNGLPTVAVLAHGLDRIYPSGHRSIAMEMLRNGGLLTDYPMGTEPERFNFVGRNRIVAGLSDATLVIESAEKGGSLITAGLAFGYNREVLALPGRATDSRSAGCNALIRDQKAALVSSAQDVLTLLDWSSTIDAKPQTLNFRPDSWPDTPVAECLLRAGTASVDELTRATGLPINDVSAQLFDLELDGLVQSQPGGIYSVI", "soluble on expression in E. coli": "not soluble"}, {"sequence": "MTTMGEDEAPALPKKSPLPEKIDEADVDDDPDDKVIKIVVVGDGASGKTSICQRFAKESFDKSYHQTLGLDFFSRRITLPHEMQVLVQVWDIGGQSIAGEMIDKYLTGANIVFLVYDVTNSKSFENAVDWLSVVKKNTKSSETPVKLVLMGNKTDLEERRVVSVEAHKNFATSNDMMPTYVSAKTGDTVFLTFRQAVAEVLNVGLSRAEVEADIEIVQGSVIEQPKQSDASYARRSDQSRSTSVCSIT", "soluble on expression in E. coli": "soluble"}, {"sequence": "MAYVKERIYESMFIIAPNVPEEERENLVERVKKIIEERVKGKIDKVERMGMRKFAYEIKKFNEGDYTVIYFRCDGQNLQELENFYRVTPEIIRWQTFRRFDLEKKERKAQREKAAAEATESSEGGSED", "soluble on expression in E. coli": "not soluble"}, {"sequence": "MRTFDDMLSKQLQDEEFKKEYDAIQPEMDVIRAIVDARTSQNMTQKELAERTGINQADISKLENGTRNPSVNLLKRLADAEMVLVRGSKDNVKPTQND", "soluble on expression in E. coli": "not soluble"}, {"sequence": "MSLNKEPDPPLAESLRPQHIDEVIGQSHLLGEGKPLRLCFMGSKLHSMILWGPPGVGKTTIARLTAQAFDCEWIALSAVFSGVKDIRAAVEKAQEYLIHDKQTILFIDEIHRFNKAQQDALLPYTESGLITFIGATTENPSFEVNSALLSRAQVYVLKPLSEQELKLLFLRAHQRALSSLQFTEEAVDFLISCADGDARRLLNLLEQTKTACLTIKTAVVDVELLHNVIVQNSRRFDKGGEAFYDQISALHKSVRGSNPDAALYWLCRMLDGGVDPYYLARRIIRMSWEDIGLADPKAIQIANDAAATYERLGSPEGELALAQAVIYLSVAAKSNAGYVAFNQAMEFIKRDKSREVPIHLRNAPTQLMKKLGYGHEYRYAHDEPHGYAAGECYLPEGMPEVNWYNPVQRGLETKIAEKLAFLRQLDKDVKKEGHHHHHH", "soluble on expression in E. coli": "soluble"}, {"sequence": "MRSSAKQEELVKAFKALLKEEKFSSQGEIVAALQEQGFDNINQSKVSRMLTKFGAVRTRNAKMEMVYCLPAELGVPTT", "soluble on expression in E. coli": "soluble"}, {"sequence": "MGSDKIHHHHHHMLRECDYSQALLEQVNQAISDKTPLVIQGSNSKAFLGRPVTGQTLDVRCHRGIVNYDPTELVITARVGTPLVTIEAALESAGQMLPCEPPHYGEEATWGGMVACGLAGPRRPWSGSVRDFVLGTRIITGAGKHLRFGGEVMKNVAGYDLSRLMVGSYGCLGVLTEISMKVLPRPRASLSLRREISLQEAMSEIAEWQLQPLPISGLCYFDNALWIRLEGGEGSVKAARELLGGEEVAGQFWQQLREQQLPFFSLPGTLWRISLPSDAPMMDLPGEQLIDWGGALRWLKSTAEDNQIHRIARNAGGHATRFSAGDGGFAPLSAPLFRYHQQLKQQLDPCGVFNPGRMYAEL", "soluble on expression in E. coli": "not soluble"}, {"sequence": "MKIDILDKGFVELVDVMGNDLSAVRAARVSFDMGLKDEERDRHLIEYLMKHGHETPFEHIVFTFHVKAPIFVARQWFRHRIASYNELSGRYSKLSYEFYIPSPERLEGYKTTIPPERVTEKISEIVDKAYRTYLELIESGVPREVARIVLPLNLYTRFFWTVNARSLMNFLNLRADSHAQWEIQQYALAIARIFKEKCPWTFEAFLKYAYKGDILKEVQV", "soluble on expression in E. coli": "not soluble"}, {"sequence": "MSLGENVEFKEFLGNFHLKEGRFRQLACQMNHRIIMGKGVALYVVGVSDSGEIKGIDENKFSETIEVLKKLATEIEAEVSSVERHEVNGGYVGLVEIRKTKAKEHILVGTAGHVDHGKSTLVGCLITGKPDDGDGATRVYLDVLKHEIERGLSAEISFAVFGYKDGKVLRMKNPLSKAEKAMVVETADKLVSFVDTVGHEPWLRTTIRGLLGQKVDYGLLVVAANDGVMRTTKEHLGIMLAMDLPVIVAVTKADMVDDARLSEVLQEISATLRRVGRVPTVLKSRHDARKAAEMVKSNKLLVPVVITSAVTLEGYDILEEIFLHLPKRYTADEDFLMYIDKIYSVTGVGTVVSGSVKSGELAEGDEVYIGPFQDGSFRRVRIQSIEMHHYRIDRAKAGDIIGAAVKGVRYDELRRGMVISRKEPRAVWEFDAEIYVFTHPTLISVGYEPVMHVETISETVTFVEMDKEYLKPGDRGIVRMKFKYHPHFVYEGQKFIFREGRSKGMGEIIRVFEGHHHHHH", "soluble on expression in E. coli": "soluble"}, {"sequence": "MKKSRYTETQIVKILKEVEAGRLVKEICREYGISDATYYNWKAKYGGMESSDIKRLKDLEEENRRLKQMYAELSLDHKILKDIVEKKLLEHHHHHH", "soluble on expression in E. coli": "not soluble"}, {"sequence": "MSNPQDDKPIDQEQEAHVILKVKSQDGDEVLFKNKKSAPLKKLMYVYCDRRGLKLDAFAFIFNGARIGGLETPDELDMEDGDVIDACRAMSGGLRANQRQWSYMLFDHNGL", "soluble on expression in E. coli": "not soluble"}, {"sequence": "MVTPLTGTHEGVSCDGCAFTAFAGNRYKCLRCSDYDLCFSCFTTKNYGDQQTIADIPIHDESHPMQLILSSVDFDLVYQGDPTRHYDERKIVSFTCPYCNITGLTERQFGTHVLSQHPEAPGYSVICPLCIGNTEMEHIQSKETENLSVHWTEIHLHTMENLFRSTEPITTRPVQRRPMLARRGNRAGVSRTAAQGRPLQDEIGAEMAALLRNMGPDSVEDIRRFTEMMTVPLLPGIRSSQRLMTSTGDRPTVVVESAVTHQDPNVQQVIRPLATIPIYPPTSDESGDETPQPAADSADESEDDNDIQELDDMQPIVEDEALKKDEFWKTLKTRISEEDVDLILETMKSTAKVKEDIDDKMPVWTQRPLKRLANAAQVTTTSDSEGDPGWLPLSFETTPIRSTGCGGYWSDKRFLRPRKMQREQSVASSNAEIMEKAEIALALIRASCLHEPVFTDPTKPDIALKEALQHLRLGEKPAKMMEYQAAEELVNMPERDPITTGEMEVEIPDFTARGYGQIVDGNIPLGVVPEADEAITNSEDEEIVGGETSGDDEDEQEDDENDSQDSSVPEEINID", "soluble on expression in E. coli": "not soluble"}, {"sequence": "MSLEKSYWEQAHLQLPLKYTWKISRNASTEKINVIVFLCIDGRTYPGEAAPNVRYGESVELIDLQFKHFQTVWKDSLLQDEHAYNDVLDGLKLCQSLRFALESAYVHARCDKDPAFFERYTGIKMHTSPLATSYTLPIMDPGQIQEFIQTHDLTRFDTLKIKTGKEESKELIKTASRYFDKMIRVDANEAWTDPDLLIKELEELKRIPLEFIEQPFESAQKDAYKYFKKYSKIPVIADESITFAPDLKEIKELFHGVNMKLMKAGGYREGANILLKSKELGLKTMVGCMVETTLGIRSGMWISGHSDYIDLDGSFVIDNEPFKLVSENLGRLVIKQVNFFIEKWQKEGHHHHHH", "soluble on expression in E. coli": "soluble"}, {"sequence": "MSLATLDVNPELYQAQLADKIARLKAMFVDYSMPELEVFESPVANYRMRAEFRIWHEGDDMYYIMFNQETREKYRVDQFPAASRLINDLMPLLMDAMKGSPILRHKLFQVDFLSTLSGEILVSLLYHRQLSEEWITAAQALKQRLNDEGFNLNLIGRARKMKVVLDRDYVVENLQVNGQPYVYKQVENSFTQPNAKVAEKMLEWAVDCTQESKGDLLELYCGNGNFSLALAQNFERVLATELAKPSVEAAQFNIAANQIGNVQIIRMSAEEFTQAMEGKREFNRLKDAGVDLQSYRCNTIFVDPPRSGMDIDTCKMVQGYERILYISCNPETLQENLQVLGETHQVVRFALFDQFPYTHHMEAGVMLERKKEGHHHHHH", "soluble on expression in E. coli": "soluble"}, {"sequence": "MGSDKIHHHHHHMKQLILFLLCLSTWTAQAKIYNVKDYGAKADGTTIDSPAINRAIEEAASQGGGTVYFPAGEYACYSIRLASHIHLYIEQGARIVGAFPSATEGYDPAEPNEHTQFQDFGHSHWKNSLIWGIGLEDITISGPGLIYGKGLTREESRLPGVGNKAISLKLCKNVTLKDFSLLHCGHFGLLATGVDNLSILNVKVDTNRDGFDIDCCKNVRISHCTVNAPWDDAIVLKASYGLGYFKDTENVTISDCFVSGYDRGSVLDCTWQRDEPQAPDHGFVTGRIKLGTESSGGFKNIAITNCIFERCRGLALETVDGGKLEDIVISNITMRDIVNAPIFLRLGARMRSPQGTPVGTMKRILISHVNVFNADSRYSSIISGIPGALIEDVTLSDIHIYHQGGYTEADGLLTPPEQEKVYPEPWMFGTIPAKGFYIRHARNITLDNVNFHYEKADGRPLFVTDDASDIRYRNITVDGKEFNTAN", "soluble on expression in E. coli": "not soluble"}, {"sequence": "MKKRLTESQFQEAIQGLEVGQQTIEIARGVLVDGKPQATFATSLGLTRGAVSQAVHRVWAAFEDKNLPEGYARVTAVLPEHQAYIVRKWEADAKKKQETKR", "soluble on expression in E. coli": "soluble"}, {"sequence": "FDFKAGEEVLARWTDCRYYPAKIEAINKEGTFTVQFYDGVIRCLKRMHIKAMPEDAKGQDWIALVKA", "soluble on expression in E. coli": "soluble"}, {"sequence": "MQNDMSVVLRAGKLLIESGAEVYRVEDTMKHFAKALQIENFEAYVVSSSIIASGINRYGKQEAKVCNTDGVTANLGRLEAVNNLSRQIAKQDLVSPEEIVKQLDLIEHQKD", "soluble on expression in E. coli": "not soluble"}, {"sequence": "SEEFLQRAKSKLNRSKRLEKVHVVIGPKSCDLDSLISTFTYAYFLDKVSPPGVLCLPVLNIPRTEFNYFTETRFILEELNISESFHIFRDEINLHQLNDEGKLSITLVGSSVLASEDKTLESAVVKVINPVEQSDANVEFRESSSSLVLKEILQEAPELITEQLAHRLRGSILFKWMTMESEKISEKQEEILSILEEKFPNLPPREDIINVLQETQFSAQGLSIEQTMLKDLKELSDGEIKVAISTVSMNLEVRVGMLF", "soluble on expression in E. coli": "soluble"}, {"sequence": "FSDTLEESSPIAAIFDTENLEKISITEGIERGIVDSITGQRLLEAQACTGGIIHPTTGQKLSLQDAVSQGVIDQDMATRLKPAQKAFIGFEGVKGKKKMSAAEAVKEKWLPYEAGQRFLEFQYLTGGLVDPEVHGRISTEEAIRKGFIDGRAAQRLQDTSSYAKILTCPKTKLKISYKDAINRSMVEDITGLRLLEAASVSSKGLPSPYNMSSA", "soluble on expression in E. coli": "soluble"}, {"sequence": "MGSDKIHHHHHHMKIFNAMFSKVNGGLEQVFLNYIPALSSQGNLVIPIIHPKAEIRNSCPQDHLITVHNFNQHDFFAIHRLKKLIKIHQPDCIITHSYRAAYLFKKTRTKVPKIAVCHVKGHYDFGTDAIIALTEQMRRDIINSGIEERRVFTIPNLIHIPDGLQYREPKNNQIPIIGVCARFAAIKGVDVFINALAELKKRGVAFQAKIAGDGKEKEQYIELIRHHGLEHEITLLGWIEDKESFYKSIDIFCLPSREESFGLVVLESMMHSLPMVLTRLSGPLEIAGNSGCALFVPPEDPVSMADGLERLLRDKDLSKQLALKAFQRVQHYSSTKVAPMLHKVLEKACEINQQ", "soluble on expression in E. coli": "not soluble"}, {"sequence": "MQGMREIKRRIRSVKNTRQITKAMKMVAAAKLRRAQETAENARPYADKIKEVISSIAAGTKDFSHPMLEARPVKKTGYMVITSDRGLAGPYNANILRLVSKTIEERHQSKDEYVIFAVGRKGRDFFKKRGYPVVEEVTGISDTPSLTEIQDIAQSAIGMFADETFDKLTIFYNEFVSPIVQRPVEKQLLPLTSEEVLDGPVSAYEYEPDSESVLEVLLPKYAETLIYSALLDAKASEFGARMTAMGNATDNATEMLETLTLQFNRARQAAITQEIAEIVAGANALR", "soluble on expression in E. coli": "soluble"}, {"sequence": "MGSDKIHHHHHHMADIALFQDDAFSLSSLTAAINEQPHVPGRVGALGLFEEDGITTTTIQIERDGDTLSLVSAGERGSPSAIVVGSKRTMIPFNTVHLPQRAFVKADEIQNLRAFGSETELEALQTVVNRRLAKLRRQLDATHEFHRIGAIKGAVLDADGKTVLIDLLQYFGIEQTVIPFELGKADTEIRVKCLEVQDAIEDALGATTYTGVRVLCGRAFWNKLIVAKTVKETYLATAMAASLRGDAREALDFGGCTFERYRGRVGDIGYVADDEAYAVPEGVPELFVTRFAPADYVEAVNTTGLPYYAKQELAQFGKGVDIEAQSNPVHLCTRPKAIVKLKA", "soluble on expression in E. coli": "not soluble"}]}]}
